Experimental data published in IntAct's records for PubMed 9430655.

B1: Merlin (Homo sapiens), P35240-1 (parent)
chain: MAGAIASRMSFSSLKRKQPKTFTVRIVTMDAEMEFNCEMKWKGKDLFDLVCRTLGLRETWFFGLQYTIKDTVAWLKMDKKVLDHDVSKEEPVTFHFLAKFYPENAEEELVQEITQHLFFLQVKKQILDEKIYCPPEASVLLASYAVQAKYGDYDPSVHKRGFLAQEELLPKRVINLYQMTPEMWEERITAWYAEHRGRARDEAEMEYLKIAQDLEMYGVNYFAIRNKKGTELLLGVDALGLHIYDPENRLTPKISFPWNEIRNISYSDKEFTIKPLDKKIDVFKFNSSKLRVNKLILQLCIGNHDLFMRRRKADSLEVQQMKAQAREEKARKQMERQRLAREKQMREEAERTRDELERRLLQMKEEATMANEALMRSEETADLLAEKAQITEEEAKLLAQKAAEAEQEMQRIKATAIRTEEEKRLMEQKVLEAEVLALKMAEESERRAKEADQLKQDLQEAREAERRAKQKLLEIATKPTYPPMNPIPAPLPPDIPSFNLIGDSLSFDFKDTDMKRLSMEIEKEKVEYMEKSKHLQEQLNELKTEIEALKLKERETALDILHNENSDRGGSSKHNTIKKLTLQSAKSRVAFFEEL
partner: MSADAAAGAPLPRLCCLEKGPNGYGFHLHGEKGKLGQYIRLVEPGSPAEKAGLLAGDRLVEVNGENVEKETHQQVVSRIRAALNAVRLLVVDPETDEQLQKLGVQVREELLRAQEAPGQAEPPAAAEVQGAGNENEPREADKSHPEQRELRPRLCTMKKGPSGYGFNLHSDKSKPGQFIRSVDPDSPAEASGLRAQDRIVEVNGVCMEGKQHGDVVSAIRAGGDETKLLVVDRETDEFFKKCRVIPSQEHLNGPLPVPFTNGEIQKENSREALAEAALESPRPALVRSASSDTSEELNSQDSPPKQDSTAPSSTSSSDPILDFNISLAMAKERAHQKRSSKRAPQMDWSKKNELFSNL

Variants of: B1
Details: with nhrf1_human NHERF1, O14745

Variant | effect of a mutation on the interaction
N220Y | decreasing interaction
